Substitutions are numbered along the chain they refer to. Blank lines part the entries; values can stand above or below the binder they belong to.
How the values were obtained:
human NKG2D-Fc [1] = target: T1, human NKG2D-Fc (human, UniProt P26718 78-216); test: competition ELISA: inhibition of 2 nM human NKG2D-Fc binding to plate-coated WT sMICA
T1 construct: also called human NKG2D-Fc reagent; not shown: Fc part, not described
T1 sequence (looked up): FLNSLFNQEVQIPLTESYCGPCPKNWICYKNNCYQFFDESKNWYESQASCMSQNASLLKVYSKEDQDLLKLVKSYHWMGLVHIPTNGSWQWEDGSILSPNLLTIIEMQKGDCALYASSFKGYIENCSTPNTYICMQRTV

NKG2D on NKL cells = target: T2, NKG2D on NKL cells (human, UniProt P26718 1-216); test: cell-based or functional assay
T2 sequence (looked up): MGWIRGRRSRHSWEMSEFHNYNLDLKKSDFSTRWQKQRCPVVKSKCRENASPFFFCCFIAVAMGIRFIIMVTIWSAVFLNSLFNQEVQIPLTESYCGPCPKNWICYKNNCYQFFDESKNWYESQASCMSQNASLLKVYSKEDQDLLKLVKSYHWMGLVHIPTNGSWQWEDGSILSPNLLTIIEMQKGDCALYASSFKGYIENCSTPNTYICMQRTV

mouse NKG2D-Fc = target: T3, mouse NKG2D-Fc (mouse, UniProt O54709 94-232); test: competition ELISA: inhibition of mouse NKG2D-Fc binding to plate-coated MICA
T3 construct: also called murine NKG2D-Fc; murine NKG2D; not shown: Fc part, not described
T3 sequence (looked up): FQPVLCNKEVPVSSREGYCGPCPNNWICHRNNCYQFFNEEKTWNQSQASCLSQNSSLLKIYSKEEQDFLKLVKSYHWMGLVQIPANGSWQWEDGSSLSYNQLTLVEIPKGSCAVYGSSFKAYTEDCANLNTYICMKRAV

biotinylated human NKG2D [2] = target: T4, biotinylated human NKG2D (human, UniProt P26718 78-216); test: biolayer interferometry (Octet), surface coated biotinylated human NKG2D, 100 nM protein
T4 construct: also called surface coated biotinylated human NKG2D; recombinant biotinylated NKG2D
T4 sequence (looked up): T1 sequence (looked up)

biotinylated human NKG2D [3] = target: T4, biotinylated human NKG2D; test: biolayer interferometry (Octet), surface-coated biotinylated human NKG2D, titration 1-100 nM
biotinylated human NKG2D [4] = target: T4, biotinylated human NKG2D; test: biolayer interferometry (Octet), surface-coated biotinylated human NKG2D
human NKG2D-Fc [5] = target: T1, human NKG2D-Fc; test: competition ELISA: inhibition of human NKG2D-Fc binding to plate-coated WT sMICA

B1: al-a2 variant 16 (ligand)
chain: EPHSLRYNLTVLSWDGSVQSGFLTEVHLDGQPFLRCDRQKCRAKPQGQWAEDVLGNKTWDRETRDLTGWGKDLRMTLAHIKDQKEGLHSLQEIRVCEIHEDNSTRSSQHFYYDGELFLSQNLETLEWTMPQSSRAQTLAMNVRNFLKEDAMETDTHYHAMRADCLQELRRYLKSGVVLRRTVPPMVQVTRSEASGGSGDRVTITCRASQDVSTAVAWYQQKPGKAPKLLIYSASFLYSGVPSRFSGSGSGTDFTLTISSLQPEDFATYYCQQSYTTPPTFGQGTKVEIKGGSSRSSSSGGGGSGGGGEVQLVESGGGLVQPGGSLRLSCAASGFTFTSTGISWVRQAPGKGLEWVGRIYPTNGSTNYADSVKGRFTISADTSKNTAYLQMNSLRAEDTAVYYCARTYGIYDLYVDYTEYVMDYWGQGTLVTVSSGGSSRSSSSGGGGSGGGGDIQMTQSPSSLSASGGSGQITVTCRASGFYPWNITLSWRQDGVSLSHDTQQWGDVLPDGQGTYQTWVATRISQGEEQRFTCYMEHSGQHSTHPVPSGKGSHHHHHH
IC50 (human NKG2D-Fc [1]): 0.7 nM
fold better binding to NKG2D than WT NKG2DL (human NKG2D-Fc [1]): 27 fold
killing of FGFR3-expressing P815 cells by NKL cells, calcein-release assay, fold against WT at 0.78 nM (NKG2D on NKL cells): ~15 fold
binding result (mouse NKG2D-Fc): binds
fold affinity increase relative to WT al -a2 (biotinylated human NKG2D [2]): 30 fold
fold reduction in the off-rate relative to WT (biotinylated human NKG2D [2]): 18 fold

B2: al-a2 variant 25 (ligand)
chain: B1 chain with Q166S
EC50 for cell killing, fold improvement against variant 16 (NKG2D on NKL cells): ~5 fold
killing of FGFR3-expressing P815 cells by NKL cells, calcein-release assay, fold against variant 16 at 0.2 nM (NKG2D on NKL cells): ~3 fold
Kd (biotinylated human NKG2D [3]): 0.062 nM
fold enhancement in equilibrium binding affinity against variant 16 (biotinylated human NKG2D [4]): 8 fold

B3: al-a2 variant 15 (ligand)
chain: B1 chain with L125N
IC50 (human NKG2D-Fc [1]): 1.7 nM
fold better binding to NKG2D than WT NKG2DL (human NKG2D-Fc [1]): 11 fold
binding result (mouse NKG2D-Fc): binds

Second part, led by results:

binding result (mouse NKG2D-Fc): binds
binding result (human NKG2D-Fc [5]): binds
B4: WED-MICA (ligand)
chain: B1 chain with L125K, R161H
notes: also called WED- al-cc2 domains; WED soluble MICA

IC50 (human NKG2D-Fc [1]): 0.5 nM
fold better binding to NKG2D than WT NKG2DL (human NKG2D-Fc [1]): 38 fold
fold affinity increase relative to WT al -a2 (biotinylated human NKG2D [2]): 30 fold
fold reduction in the off-rate relative to WT (biotinylated human NKG2D [2]): 18 fold
B5: al-a2 variant 18 (ligand)
chain: B1 chain with S20P, G68L
killing of FGFR3-expressing P815 cells by NKL cells, calcein-release assay, fold against WT at 0.78 nM (NKG2D on NKL cells): ~15 fold

fold reduction in NKG2D binding affinity (biotinylated human NKG2D [3]): 250 fold
B6: al-a2 variant 48 (ligand)
chain: B1 chain with E152A, H158I, Q166A

IC50 (human NKG2D-Fc [1]): 0.6 nM
fold better binding to NKG2D than WT NKG2DL (human NKG2D-Fc [1]): 32 fold
fold affinity increase relative to WT al -a2 (biotinylated human NKG2D [2]): 30 fold
fold reduction in the off-rate relative to WT (biotinylated human NKG2D [2]): 18 fold
B7: al-a2 variant 17 (ligand)
chain: B1 chain with G68L
killing of FGFR3-expressing P815 cells by NKL cells, calcein-release assay, fold against WT at 0.78 nM (NKG2D on NKL cells): ~15 fold

Source: patent publication WO2017222556A2 (dated 2017)
